Results taken from US20150337019A1 (MANUKAMED HOLDINGS LIMITED PARTNERSHIP, published 2015).
The star is where a group is joined. TNBS = trinitrobenzene sulphonic acid, N-terminal block, O=[N+]([O-])c1cc([N+](=O)[O-])c(*)c([N+](=O)[O-])c1; pNA = O=[N+]([O-])c1ccc(N*)cc1

These binders were tested against T1, Cathepsin B from bovine spleen (bovine, UniProt P07688 80-332) (assay: cell-based or functional assay).

Row | Cathepsin B inhibition test, 2 mM peptide | Binder
1 | 149 | Ac-KISIHL-OH [Ac-KISIHL-OH]
2 | 92.8 | Ac-KISI-OH (also: MGO-modified, site not given here) [MGO-modified Ac-KISI-OH]
3 | 91.5 | Ac-PFKI-OH (also: MGO-modified, site not given here) [MGO-modified Ac-PFKI-OH]
4 | 152 | Ac-PFKI-OH [Ac-PFKI-OH]
5 | 133 | Ac-KISI-OH [Ac-KISI-OH]

Target: T1, Cathepsin B from bovine spleen
Experiment: cell-based or functional assay
Remark: another data set of the same source

Row | Cathepsin B inhibition test, 2 mM peptide | Binder
6 | 150 | Ac-Lys-Asn-OH [Ac-KN-OH]
7 | 254 | Ac-NQKNNNQNDN-OH [Ac-NQKNNNQNDN-OH]
8 | 282 | Ac-NQKN-OH [Ac-NQKN-OH]
9 | 102 | Ac-NQKN-OH (also: MGO-modified, site not given here) [MGO-modified Ac-NQKN-OH]
10 | 87.5 | Ac-NQKNNN-OH (also: MGO-modified, site not given here) [MGO-modified Ac-NQKNNN-OH]
11 | 147 | Ac-NQKNNN-OH [Ac-NQKNNN-OH]
12 | 171 | Ac-NQKNNNQN-OH (also: MGO-modified, site not given here) [MGO-modified Ac-NQKNNNQN-OH]
13 | 290 | Ac-NQKNNNQN-OH [Ac-NQKNNNQN-OH]
14 | 123 | Ac-NQKNNNQNDN-OH (also: MGO-modified, site not given here) [MGO-modified Ac-NQKNNNQNDN-OH]

Target: T1, Cathepsin B from bovine spleen
Experiment: cell-based or functional assay
Remark: another data set of the same source

Row | Cathepsin B inhibition test, 2 mM peptide | Binder
15 | 78.5 | Ac-Cys-Asp-Arg-OH (also: MGO-modified, site not given here) [MGO-modified Ac-CDR-OH]
16 | 104 | H-Met-Thr-Arg-OH (also: MGO-modified, site not given here) [MGO-modified H-MTR-OH]
17 | 99.5 | H-Met-Gln-Lys-OH (also: MGO-modified, site not given here) [MGO-modified H-MQK-OH]
18 | 119 | Ac-Met-Thr-Arg-OH (also: MGO-modified, site not given here) [MGO-modified Ac-MTR-OH]
19 | 121 | Ac-Cys-Asp-Arg-OH [Ac-CDR-OH]
20 | 69.2 | Ac-Met-Gln-Lys-OH (also: MGO-modified, site not given here) [MGO-modified Ac-MQK-OH]
21 | 126 | Ac-Met-Thr-Arg-OH [Ac-MTR-OH]
22 | 122 | {TNBS}-Phe-Ala-Lys-pNA (also: MGO-modified, site not given here) [MGO-modified TNBS-FAK-pNA]
23 | 165 | H-Cys-Asp-Arg-OH [H-CDR-OH]
24 | 121 | Ac-Met-Gln-Lys-OH [Ac-MQK-OH]
25 | 143 | H-Met-Thr-Arg-OH [H-MTR-OH]
26 | 99.3 | {TNBS}-Phe-Ala-Lys-pNA (SMILES C[C@H](NC(=O)[C@H](Cc1ccccc1)Nc1c([N+](=O)[O-])cc([N+](=O)[O-])cc1[N+](=O)[O-])C(=O)N[C@@H](CCCCN)C(=O)Nc1ccc([N+](=O)[O-])cc1) [TNBS-FAK-pNA]
27 | 96 | H-Cys-Asp-Arg-OH (also: MGO-modified, site not given here) [MGO-modified H-CDR-OH]

Target: T1, Cathepsin B from bovine spleen
Experiment: cell-based or functional assay
Remark: another data set of the same source

Row | Cathepsin B inhibition test, 2 mM peptide | Binder
28 | 171 | H-QNGNK-OH [H-QNGNK-OH]
29 | 74.4 | H-QNGNR-OH [H-QNGNR-OH]
30 | 68.4 | H-QNDNK-OH (also: MGO-modified, site not given here) [MGO-modified H-QNDNK-OH]
31 | 119 | H-QNGNK-OH (also: MGO-modified, site not given here) [MGO-modified H-QNGNK-OH]
32 | 88.7 | Ac-QNGNR-OH (also: MGO-modified, site not given here) [MGO-modified Ac-QNGNR-OH]
33 | 162 | Ac-QNDNR-OH [Ac-QNDNR-OH]
34 | 101 | Ac-QNGNR-OH [Ac-QNGNR-OH]
35 | 162 | H-QNDNR-OH [H-QNDNR-OH]
36 | 89.2 | Ac-QNGNK-OH (also: MGO-modified, site not given here) [MGO-modified Ac-QNGNK-OH]
37 | 167 | Ac-QNDNK-OH [Ac-QNDNK-OH]
38 | 85 | H-QNGNR-OH (also: MGO-modified, site not given here) [MGO-modified H-QNGNR-OH]
39 | 104 | H-QNDNK-OH [H-QNDNK-OH]
40 | 132 | Ac-QNDNR-OH (also: MGO-modified, site not given here) [MGO-modified Ac-QNDNR-OH]
41 | 187 | Ac-QNGNK-OH [Ac-QNGNK-OH]
42 | 122 | Ac-QNDNK-OH (also: MGO-modified, site not given here) [MGO-modified Ac-QNDNK-OH]

Target: T1, Cathepsin B from bovine spleen
Experiment: cell-based or functional assay
Remark: another data set of the same source

Row | Cathepsin B inhibition test, 2 mM peptide | Binder
43 | 80 | Ac-Leu-Val-Lys-NH2 (also: MGO-modified, site not given here) [MGO-modified Ac-LVK-NH2]
44 | 148 | Ac-Leu-Leu-Lys-OH (also: MGO-modified, site not given here) [MGO-modified Ac-LLK-OH]
45 | 144 | Ac-Leu-Val-Lys-OH [Ac-LVK-OH]
46 | 0.07 | Ac-Leu-Ile-Arg-OH (also: MGO-modified, site not given here) [MGO-modified Ac-LIR-OH]
47 | 80.8 | Ac-Leu-Val-Lys-OH (also: MGO-modified, site not given here) [MGO-modified Ac-LVK-OH]
48 | 92.7 | Ac-Leu-Val-Lys-NH2 [Ac-LVK-NH2]
49 | 142 | Ac-Leu-Leu-Lys-OH [Ac-LLK-OH]
50 | 72.6 | Ac-Leu-Ile-Arg-NH2 (also: MGO-modified, site not given here) [MGO-modified Ac-LIR-NH2]
51 | 137 | Ac-Leu-Leu-Lys-NH2 (also: MGO-modified, site not given here) [MGO-modified Ac-LLK-NH2]
52 | 128 | Ac-Leu-Ile-Arg-OH [Ac-LIR-OH]
53 | 65.4 | Ac-Leu-Ile-Arg-NH2 [Ac-LIR-NH2]
54 | 159 | Ac-Leu-Leu-Lys-NH2 [Ac-LLK-NH2]
